Assay: protease stability score; higher = more stable; yeast display proteolysis, trypsin and chymotrypsin;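 note: relative to predicted unfolded state with 0 unfolded-like and 1 meaning tenfold more protease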

Row | Sequence | protease stability score
1 | SEEERDLREALEEHKRTLQTGDEELWNKLFDPHARSDINGVEFHGMEDISRHIYKFFIDFGFKHVRFKHVELYGDKLVMRGSLNINGVDLDIEIISRKIDGRWLIHHWIIR | 0.859
2 | SEEERDMKEWLRLHVEALRTGDEHHLRHLMDPHTRIQVGDKEIHGMDEIARHVREIRQHVEIRVHHVEIIGDKIIMDVELRLIVHFDGKTFDIKTRFLLHIWKVNGRWILKSVHIE | 1.21
3 | SEEERDTIEFARLWLENYLTGDEETMKELADPRTLSTFRFENHHLHLHGMHLHFTWLHQIRIRHFQPREVSVVNGKTTIDGEYHGEVGDKSHTTRVIIRLEIVNGKIKSVEIEVK | 1.07
4 | SEEERDVKEVLKLIFEHFLTGDWDWLSEMMDPHARSDINGVERHGRDDLKEMYEAIIRKLGADHIRVDTVRVDLFDGRLIVEIHTRNHVGDKEFRVINIFIMRKINGRWHVESVLLHIE | 1.56
5 | SEEERDVRHVFEVFERSMNTGDEKKIEDRLDPNVRIIIGDKRVHGMHWVSKVIVEMRTHFILRRIRIIGDKADIDGELELRAEGHHIHTHVIIVVHKINGRWYIEEIEIR | 1.69
6 | SEEEREAQTFYEEWRENFRTGDFDRLHELMDPNARIHQGDKLIIGRQLLEHWRHRFKNIRVDFDLKHIEVQGEKIILRLHFEISIDGRTEHYDMIMIVHKVDGVWIVKSFTIK | 1.43
7 | SEEEREDEEMFRKLWEAYKTGDEKTLSELVDPNARLRFENREFVGRESIKEFYRRIREKFKGIRIEDVHLRDRKEQGEFIHIDIEINRFVGDKYENVKVEIVLLKFDGRWIIHEIRIK | 2.69
8 | SEEEREIREIMKRFVQSFYTGDEHSLKKLLDPNVRHEFNGKEEHGWHRVWEDLAFFLRHIRIKHVVLRDVRVQGDKVHAHVEIHEEWDGRERDVEVHMRLEIVDGVVKSVKIEIQ | 1.43
9 | SEEERESEEFWKHLRDVTRTGDFDSLSKLVDPEVRLEWNGRHFIGREHLAELVIDMLNRIDHVELRLHSYRLQGNYLHLRTILIIRINGQQITHDTRITFIKVDGRWIIESKHVH | 0.869
10 | SEEERESKEATKLHLDALRTGNEELLRHLFDPDVKVDVNGKHLHGWKLLTEVLQRMGVKHVELTDFRVYDGRIDLREKWDVDGKEIEVFIHARKFNGQWHTESIHIK | 1.15
11 | SEEERETKLMDEIYQRLFKTGDEHKFLRLADPHAKFHFDGREDHGMHNSTRIWKKLNDILGLDNIRFHVRDWTVFDGVAHVDGKLVINGKEIEVKLHVVVVNGRVKSVSIEHE | 0.924
12 | SEEERETRKIFEDLLKTMETGDWRHLHRLIDPNARLIVNGQEFHGREDLIRLLEQLRIRSMRITDVRNQGNKSHVDGTVEGEWNGRTDNNRTEVHLVVVDGVLKHVEFHLH | 1.47
13 | SEEERFVEEMLRHFLTNFLTGDWDKVAKLADPDTRSLIGDKHSHGRERVIDVLTYVVEEWRWKEFRVHRTTSIGEKAHSDTETDGNYNGVDVRSRSYIHFEVVNGRMSQIHLIFV | 0.694
14 | SEEERHIKEFTRRLLHVFITGDEHELKELFDPNTRSIFNGVDVHGWKEITRFIREIREKEVRIRDVKVFNGRVHLEGHSNMEWNGQERRSDVEMHFDVINGQVHEIEIRIR | 1.17
15 | SEEERHSREMMKLYYKFLETGDEEKFLSLADPDVRIVFNGRDYHGWKDMEKLFHRLLKELGVDHFHIEHVRIDIIDGVAFAFFEVSYNIDGKSLHMHYRFYVKKIDGKWHVRWIHLEVK | 1.59
16 | SEEERHWKEFIRMMFEALKTGDETELEKNIDPNVRVHINGQELHGRETASRFMQKHEEDMGFKHFHIDHIHFQGDKIHVHGILWVNGRDIEIHIHLVIVNGRVSLVSRDIREH | 0.247
17 | SEEERILEEILRRLLRLLATGDWEDLHKLFDPTVRIVFNGQLLHGWHEFIRTMHQLWVDRIRVERVRFQGDFQHYETRNDITINGVRIETESRVHVKIVDGRIKYFEFELT | 2.53
18 | SEEERIMEEVSNLILDILYTGDWRRFLKLADPRTRSEINGVELIGMENHFKMWEHWRIKHIDMHSHESQGDKAIAHTRHRGEINGRERDVDTNLFVLVVNGRLKQIRLEFV | 1.25
19 | SEEERLAEHYYRETIELITTGDWRKLLELFDPDARLVIGDKTYHGMDTIIKIWEELRMHIRDVHFHHVSVIDGRIHLDVVVDVTKNIDGVRIRTTHRVHIIMEKIDGKWFVREIRIK | 2.38
20 | SEEERLAREISKELVEILLTGDEDRLLELADPDVRHILLFNGRDDDQHGRENMSRAEKLFREWLGVKHVDVTHVEVQGDKIHNDTVVDINGVRFEFRIIWVVVNGRVKVWRVEMR | 1.52
21 | SEEERLARVFVELLLEISKTGDERMWKWLADPHYRLIIDGVRFHGRETLEREFKRFDYIHDVRLNDMIINGEHLILDVRVHGQQGDKEINIRTFLVVLKVDGVWVLKSVHIH | 1.49
22 | SEEERLIIEVMKDFEHSHRTGDWRRILKNLDPNTRHEFNGVEFHGMEEVVRFWIELKDEIRIHHIEIESINHVGDKAHMNVRRDTEVNGKREDVRVQVDLRVINGRIKSVIIRIE | 0.844
23 | SEEERLLHEFWERLQHSHKTGNEEEYRKNIDPHARLDIDGREMHGWENFFHFFVEMRVHDLRIEDYRVQGDKVIVHTRVDGIVNGVRTEIHSELIIRKIDGRWFIEAMTIK | 1.07
24 | SEEERLMEEAMKEFVNNSLTGDFHKMSNLADPNTRIEIDGRELHGRELAEELWERIKNLTVEIKDYKVQGDKVIIYVKIHVNGREKDVILYVQKINGRWLLRHVEVR | 1.34
25 | SEEERLTEEFLTKFEEILETGDEELLWRLIDPHARTLFDGQEFHGREDFVMIFDELVRHAGFDVRHIHSIHVQGDKIEVRSTMVVNGRNFEIRLHLRKINGRWHIEEIEIR | 2.7

Row | Sequence | protease stability score
26 | SEEERLTRELVEILLELFKTGDEDKWKEMVDPNVRVELIQGEKFIIDHGWESFFRFLLELGVDHREDKRKDAVNGRVHLTGQIDINGRRIDIHLDIDVVNGKVKSIRVELR | 0.933
27 | SEEERLYEHAWKLYIHDFITGDEKSHSRLADPHTQMIIGDKLLIGREEFVKWMKHLLDQVKNITVEHVKIRHEHYQGDKAHIDVEEEIHFNGQRHKRRVILTILKVNGRWSIESVEYT | 0.898
28 | SEEERMTHEATRDLIETILTGDENILRKLADPNMIINVRQGEKDIRIHGRHDYIRWVKLLGVDHVQVRDIHFQGDKATIHLEVEVNGRSINMIIIMRKVDGRWLITETREHHL | 1.09
29 | SEEERQLHEFAELIVHDLLTGNFELLSSLLDPHARMEINGKRFHGWTQILDILHRIWLHLRIRDRQVRRVEVYNGRINSRIEVDGEINGRRISLDELLILVVVDGRIRSESIHFE | 1.03
30 | SEEERQSREFFKKWIHYMLTGDEHQIHTLADPNVRVVINGKEHHGRERLYELVLEFHHRLQNATSRVHTQDSVVIDGRLELHMELRVHQGDKEDTFQIRQLVVKIDGVWHSKSFEVE | 1.61
31 | SEEERRDEHLMRLWVHLLLTGDEDTLKKLADPDARLVVGDKTFHGMEEVSRIMHEFLRRLGIKHFHDLDFKHVRHINGVAHFNGRLHGIQGEFERNTNIEFVVVVVDGRIKSSEIHWH | 1.41
32 | SEEERRYELFLNLLREIMETGDEHRRSNLMDPHVRFDWNGVEFHGREMLEFIIERLHKEARLESYEIHRVTLIGDKIELRVREKRRVGNKIIEWDVIIIVRKIDGKWTIEEVEIR | 1.63
33 | SEEERSAIEFITRWIQAFETGDEDTLHKLADPNMKIWINGRELIGMQRFIRELQEEMTKRGVRIHIRIEDMRVFNGRLHTDGQFKLEVNGVDVFTTTYLLINKINGKWILEHVNIN | 1.3
34 | SEEERTAEKLMRDWLKNWMTGNEEIIKELADPNVKLLVGDKEMHGMEELSRFLKELRIHDSDVRDIRLKSINGVLHIESDGRLKGEFNGQHIDTRTVVRLDVHKFDGRWHLKSIEVEIR | 1.95
35 | SEEERTQTLAMKIIWDVLLTGDWKELFDNMDPHARMEINGRKFHGREEIIRHLRELHNKLGIDRVESHLHSVHYVDGVIHVDIHLHYNGKDERIEIIAMKYNGRWTLTEVNYREE | 2.13
36 | SEEERVAIEHMRWVIRALLTGDEELLRHLFDPSTRFDFDGQHRIGMEDLVRFWRHLRVRRFEIEDERVHFQGDKIEARTEGRIQGDINGKNVEREIRVILIVMKIDGKWIIRIISHEVD | 1.63
37 | SEEERVAKHVSHNLFESLKTGNEEEIEKFFDPNVKVQVGEFEHHGREAVLFWFHEFGIKHIHFHEERVQGDKMHSHLNLIVNGRHISHHIHFHKINGRWHITHQRFH | 0.828
38 | SEEERVLREAIKLLEHLLRTGDEKSFHELFDPDVKIEIGDKEVHGRERWVELYRTWGLENVESHVRVDDERIQGDKMEMDMQLDLRYDGRIDTTKVIILATKINGRWKLEHFEEE | 0.028
39 | SEEERYHDKALKILKESVDTGDPHLLSRYMDPNDRLDINGREIHGMEILLKELLHIMERADHIRIELNDIKMQGDFLELDGILIIHQGEYTLQLRVKLVSLKVDGRWLHHSIEVK | 0.171
40 | SEEESKERHNEKFLKTVHKTGDEHSWRKMLDPDVRVEYGDKHDHGWEAIERFRKELGIERIHIDDRKIRHNEVVNGQVYLHEELVGTVNGVHVQVKMLIIFHKVDGKWHVELVQIN | 0.559
41 | SEEETDAKIAYHLEYELLKTGDEKMIHENLDPDARFISDVNGVEHRDHGRENFSRSMSEWLKRFGVDHMDIRHVRFFNGKIDMEVEINVNGVRIDLHLHSHKINGQWIITRVDIRID | 1.24
42 | SEEETFTEIAVKLLMHLWNTGDENELMRNFDPNARMDINGQEYHGREDIVRRLDEFKKRLGVERVHFELNDIRPVNGRADVDGIVIFNGQKLRVRHIVWKINGRWYLEEFEVR | 1.44
43 | SEEETHVKEAVKRSVDFLETGDERLFRELFDPNVRLIVNVGNKRVELHGWEEVVRWLREARLHRVILRTIRIQGDKAEVEGDVDGEINGRHDLHIIEWHFIVINGRFHSVSVRIE | 1.05
44 | SEEETMERLSIEITLEMLKTGDETEILKNMDPDARVIVGDKVYHGREHVIELWRRLGVKHSEPKHVYVINGRVHIDMEVHVDGKRFHVHIISHKINGQWSITNVKLEKE | 2.02
45 | SEEETRLEKYLRILLEMWKTGNEEWMFKYADPDARLQVGDKEFHGREHIMKFLKDWLDKAGVKHEEDRREEYIGDKLRVDSERNVNGVENRVILIFVVINGRYREFIIIIR | 1.47
46 | SEEEVLAHKFLRTWVESMNTGDEKSIMRLFDPNVRYHVGDKEIHGMDEHREEFTELLHRVKNVRFFFDEHDMRNIDGRIEMKGRLEIIQGEYHESTTVELIITKVNGQWVWESVFIK | 0.488
47 | SEEEVQFRRFFEAFLHFWETGDEKMLKTLLDPHVKFTVHFENHRSHYHGREEFTKFLHELGVKHFELDRVRIEFQGDKIRIEIDGVLLYDGRFHESHIILIIVKVDGRWVIHQLHIQIE | 2.15
48 | SEEEWLTEYIWRVFIRLLLTGDERAINKLLDPHVQVDVGDKRIHGRELLSHIWRTEAEEIRHHIEVKRFHSQGEKVHHDVRITIIINGQVHRIEAHIHLFIYDGRITHIEVEFR | 1.36
49 | SEEEYWAKEMAILLDIAWYTGDEERFEEYVDPNTRIDFDGRVFHGREFLHHFRERVDHMREVRSRIESVHKQGDKLRVHGHLIIQGVIDGVDTQQRFKVHFIMEKVDGRWIFREEIYK | 1.51
50 | SEEFEILFRLLEELDRAFETGDFKRFMELADPHTRLDVGEFHHWGREKVLEFWRHWRVKHVRVEFKRIDYQGDKLHTDGILRHTGEINGQETHEETRTNIHLIVINGRMHALEVRII | 2.01
